According to the DeepSol protein solubility set:

Assay: soluble on expression in E. coli; label from the status in PepcDB or PDB records

Soluble on expression in E. coli, not soluble:
MGSDKIHHHHHHMRKERDYLGKLEIEGEVYYGIHTKRALMNFPSTGEKLDETFIWAYFMVKKACALLNTELGYLDERTGNAIVKACDEWEDLKKHVVVDPLSGGAGTSINMNVNEVIANRATEILGGKKGEYLVDPIDHVNLHQSTNDTFPTSAKIATIVKLRRLIDEVINLQEKIQEKEKEFYSIRKPGRTQLMDGPPIMLGQEFGAFADALARDRWRLYKVEERIRSVNIGGTAIGTGVGAPKDYILKIVEKVREVTKVKIAKAENLIDATQNWDVFAEVHGLLKSLAVNLYKISNDIRLLGSGPNTVIGELILPAVQAGSSIMPGKINPVVSEYVMQICHMVFGHDMILNHACALGNLELNQFAPLIVHLTLKSLTLLTNACRSLASYISKIKANNERCEEHLRRSVSNLTPLIKLFGYEAVSEAIKKANWDIKKAVEILSQEKNIPVEEILKVLNLKKMTGLGYSL
MGSDKIHHHHHHMRKKSLTLLSDGYLFRKENTIYFENARGKKPLAIEGIYDIYIYGKVSISSQALHYLAQKGIALHFFNHYGYYDGSFYPRESLHSGYLVVNQVEHYLDKDKRLELAKLFIIGGIKNMEWNLLKFKNKTKFSSYIEELNNCNKITEVMNVEGRVRTEYYRLWDETLPDDFKIVKRTRRPPKNEMNALISFLNSRLYPAIITELYNTQLTPTVSYLHEPHERRFSLALDLSEIFKPMIADRLANRLVKQGIIQKKHFRDDLNGVLLNKEGMKVVLEHFNKEMDKTVNHKKLKKNVSKRRLIRLEAYKLVKHLVGQKRYEPLVAWF
MGSDKIHHHHHHMRLPLNQRVAILLHEGTTGTIGKTGLALLRYSEAPIVAVIDRNCAGQSLREITGIYRYVPIVKSVEAALEYKPQVLVIGIAPKGGGIPDDYWIELKTALQAGMSLVNGLHTPLANIPDLNALLQPGQLIWDVRKEPANLDVASGAARTLPCRRVLTVGTDMAIGKMSTSLELHWAAKLRGWRSKFLATGQTGVMLEGDGVALDAVRVDFAAGAVEQMVMRYGKNYDILHIEGQGSLLHPGSTATLPLIRGSQPTQLVLVHRAGQTHNGNNPHVPIPPLPEVIRLYETVASGGGAFGTVPVVGIALNTAHLDEYAAKEAIAHTIAETGLPCTDVVRFGADVLLDAVMQN
MGSDKIHHHHHHMRLVLSGYYGFYNVGDEAILQSIIKALYEEEPTLELVVLSNDPDYTRKMYGVEAVNRWDIRAIYKEIKRSSGLISGGGSLLQDKTSIKSILYYTGIMRIARFLKKPYYIYAQGIGPITKRQNRLLVKWQVSKAEYISVRDEDSFLYLKEIGIKKDIELVPDPVLACQSEGMKSEWLQKHSIQGKVIAVSVRYWDAKEDYMKKLADTLKKFKRDGYHILFVPMHGPFDQNASRDIINLMGEEAHMLPYKLDIHEKISIFSECSLLIGMRLHALILSAVANIPMVGISYDPKVDSFLQQVNQPIIGNVDGDWTAETLYNVAMKQLEQKEYIQAKLEQRVEELREQISTASRYIISDLNSKEFKKENVEFHK
MGSDKIHHHHHHMRNEYFFRVAGLTFSVILPGGLDAETLLPSFRPFRCGECPEGERIFRLLADTRPFADDGKRAELLDESSNDMGHVCLLRIPGGYRTEISYGPMDGGAHLMTVDTAFDDATAFLRVEDPSMGEVLSSMLRILYAQAALGRDAVSVHASCVSLKGRGYLFLGKSGTGKSTHSRQWLEAFPDCRLLNDDNPVLRIEDGMVSVYGTPWSGKTPCYRNERRPVAGIVRLQQSGTNRFTPLEGPEAFAALLPSCSAIRQDIRLHDELCRILIRVTEQVPVGRLECLPDREAAWLCFESLYVRDAKAREVRDGLPENGGL
MGSDKIHHHHHHMRNINYFFAGSLLLLSGCQLIPNGDIPADDETNINPTLEVVSPTESDTREQVVEARDLWQRMQEGMHWEKPNEAYVAPFRQKLLANPRHLEQVFSRAEPFLYLIVDELERRGLPLELALLPAIESAFDADAISHASASGLWQLTPPMARYFGLKMNWWYDGRNDVVASTRAAADFLEYLYDRTGNNWHYAIAAYNSGEGRVLSAVRHNEKAGKPTDIWALKLPRETRNYVPNLLALADVVKHADKYGVSLPRIKNEPVVDVVEIGSQIELALAAELAGLSVSELKSLNPGFKQWATAPKGPHRLVVPVSNAPDFVVALAQTPQEQRVQWARYQIKRGDSLSVIARQFGTTPQVLKQVNQMKNNQLIAGKELVVPANGRTNASAQLASATPKQSYKVKSGDSLWKIAQAHGISVNDLKKWNSLGSKAIIRQGQLLTVWPGSKAVANTRSTTYQVKRGDSLSLIAQKFKVKISELMSWNKLSSSALQPGQTLTVMLQ
MGSDKIHHHHHHMRQTFIARKISFISLIHFRDEYMSPQNNHLQRPPAAVLYADELAKLKQNDNAPCPPGWQLSLPAARAFILGDSAQNISRKVVISPSAVERMLVTLATGRGLMLVGEPGTAKSLLSELLATSISGDAGLTIQGGASTTEDQIKYGWNYALLINHGPSTEALVPAPLYQGMRDGKIVRFEEITRTPLEVQDCLLGMLSDRVMTVPELTGEASQLYAREGFNIIATANTRDRGVNEMSAALKRRFDFETVFPIMDFAQELELVASASARLLAHSGIPHKVPDAVLELLVRTFRDLRANGEKKTSMDTLTAIMSTAEAVNVAHAVGVRAWFLANRAGEPADLVDCIAGTIVKDNEEDRARLRRYFEQRVATHKEAHWQAYYQARHRLP
MGSDKIHHHHHHMRRFFKNNLRNLSQNGETNSVRRCFALADVTVVINGRTLTVPDNLTVIEACEKAGIEIPALCHHPRLGESIGACRVCVVEVEGARNLQPACVTKVRDGMVIKTSSDRVKTARKFNLALLLSEHPNDCMTCEANGRCEFQDLIYKYDVEPIFGYGTKEGLVDRSSPAIVRDLSKCIKCQRCVRACSELQGMHIYSMVERGHRTYPGTPFDMPVYETDCIGCGQCAAFCPTGAIVENSAVKVVLEELEKKEKILVVQTAPSVRVAIGEEFGYAPGTISTGQMVAALRRLGFDYVFDTNFGADLTIMEEGSEFLERLEKGDLEDLPMFTSCCPGWVNLVEKVYPELRTRLSSAKSPQGMLSAMVKTYFAEKLGVKPEDIFHVSIMPCTAKKDEALRKQLMVNGVPAVDVVLTTRELGKLIRMKKIPFANLPEEEYDAPLGISTGAAALFGVTGGVMEAALRTAYELKTGKALPKIVFEEVRGLKGVREAEIDLDGKKIRIAVVHGTANVRNLVEKILRREVKYHFVEVMACPGGCIGGGGQPYSRDPEILRKRAEAIYTIDERMTLRKSHENPAIKKLYEEYLEHPLSHKAHELLHTYYEDRSRKKRLAVK
MGSDKIHHHHHHMRRSSLKEPGPASAIRTENFTRGMGEVPAALGKVCRGGSHAKAHERGLIMLISQILDDAETIRVVARNGGKTRIINGARSVYSLAMEAARTGVGLATLIERKGLGETVDLDAAYKKGRLLSPINHPDPAHLHLTGTGLTHLGSAATRDSMHKKLSSADGEEQLTDSMKMFRMGLEGGKPAKGQVGVQPEWFYKGNGTMAVAPGAALLSPAFAKDAGEEPEIAGIYVIGDDGAPFRVGFTLSNEFSDHVTERVNYLFLAHSKLRNASFGPEILIGDLPSDIRGTSRIVRDGETLWEKPFLSGEANMSHTIANLEHHHFKYSAFRQPGDVHVHMFGTATLSFADGVKTEAGDVFEIEAGDFGLPLRNPLEIEKPVKVAVKAL
MGSDKIHHHHHHMRSAAVDYAPSQAERRNFQRVRVKIYGRFMLEDRTEHPCQVVDMSPGNVAFRTDRIGMPGEKVIAYIDHIGRIEGVVTRTLQDGFAMTVIASDRKKDKLAAQLTWLANKHELDLPEDRRHERVAPRNPTSVLQLTDGRQYQCRIIDLSLSGAAIEIDVKPAIGVQVMLGTMRGQIVRHFEDGVAIEFAVIQRPETLDSEFNTPRA
MGSDKIHHHHHHMRSIKNITLGLATVGVMSLSGCAGDYLDTIPSTSVSETTINTSLDNLYIALNGIHKEMVSQESGYQCLGGEPGFMMSRDAEADDMNWQTNTWMKAAYLGWQCNMNETNGYNYKFWQIYYQWILNANKILAGLEEVEITSQELFDQIKGEALCIRAWAHFNLVQLYAKRYEAGKDNTQDGIPYREKAVAEEQARNSVEDVYAKINNDLDEACILLSGIKVNDVNHYSEMVAWGLKARVALAMQDYNNAAVYAGKSVSLAEAGGHRLMTGSQLNCGFANITTDTKEAMYAAMTPDDKTVYFYSYYAYMSWNFNSSAIRQGVKCINVDAYETMSETDLRRAWWDPTGEASVPSSSYAKNAYQNRKFTARSTADAVGDVAFMRLAEMYLTQAEALARAGKDSEAQAVFTKFQITRDPSYVSKGNIGDALAEEIMNSRRVELWGEGFRFL
MGSDKIHHHHHHMRSKGVMIPRIMSTQHPDNYSIPFFASSPILGGEDEITEAFYAFSVLGADEQMWDFEGKEVDEFVVKKLLERYPTFFKENILGEDLRLTPRVPNPSVEKAEAKLLLETLQGITRAADYARVFYLDNIAPIFEVILPMTTSLAEMLRVHELYRKIVSLSGEVIYDVTVKEWIGEFYPKEINVIPLFETKVALLKSGRIIREYIGRKRPEYLRVFFARSDPAMNYGLLSAVTYVKKALEQVGEVEEETSTPIYPIIGVGSPPFRGGMRPENVKKVLKEYPSVQTYTIQSSFKYDHPTKDVVKAVEIVKSKKREAPDPLDIPEFIQLYEIEYQKQLKILAPYIRNIVTRIPDRRKRKLHIGLFGYSRNVGGLSLPRVIKFTASLYSIGLPPELLGLNELSDNQLDSISEYYKNLYDDLEFAMRFFSFKVAERVGLRELSEKVKEFKPDIDDEYVREAELVFRGQGDVMKLAQIRGFLG
MGSDKIHHHHHHMRTYRSFKMFTNSSQGVRKVRVGIAGLGTVGGSIYRILKERGNEIEKRIGEKFIISKVINRSPQKYELLGVPKEEIAFDFDDLILNSDVVVEAIGGTDVAVDLVRRALELGRIVVTPNKNLISEYGNEFSEYIKKRKLFFEASVGGGIPIISLLQDYLIFQKVTRIRGIMNGTTNYILTEMSKGRHFEEVLKEAQELGYAEADPTNDIEGYDVAYKVSVLAGVVTGRFPGINSVQFEGITRIDPEYLKEIVRSGKKLKLIGELDFSTNRYEVRLREVTPEDPFFNVDGVDNAIEVSTDLAGDFLLKGRGAGGYPTASAVIADLFRVAKYKVLGGAEKFSVVVMKFGGAAISDVEKLEKVAEKIIKRKKSGVKPVVVLSAMGDTTDHLIELAKTIDENPDPRELDLLLSTGEIQSVALMSIALRKRGYKAISFTGNQLKIITDKRYGSARIIDINTDIISRYLKQDFIPVVAGFQGITETGDITTLGRGGSDLTAIALAYSLGADLCELYKDVDGVYTADPRIVKDARVIKELSWEEMIELSRHGAQVLQARAAEFARKYGVKVLIKNAHKETRGTLIWEGTKVENPIVRAVTFEDGMAKVVLKDVPDKPGVAARIMRTLSQMGVNIDMIIQGMKSGEYNTVAFIVPESQLGKLDIDLLKTRSEAKEIIIEKGLAKVSIVGVNLTSTPEISATLFETLANEGINIDMISASSSRISVIIDGKYVEDAVKAIHSRFELDRE
MGSDKIHHHHHHMRVLVTGANGFVGSRLAGQLGRSDHFSLACAVRTTGTCRFGEEYSIGELGPKTDWSAALRGQDVVVHLAARAHVMDDEAPDPLVEYRRVNVDGTLNLARQAIDAGVRRFVFVSSIKVNGEQTDLGQPFTSDQITAPADAYGISKLEAERGLLALGKESGMEVVIIRPPLVYGPGVKGNFATLIKLVEKGFPLPLGAISNKRTLVSLDNLVDLIQVCIDHPAAANEVFLAGDNSDLSTSELLREIGKAVGKPARLIPVPQGFLMVAARLLGKTDVARRLFGSLQVDISKARHLLGWEPPVSVEEGLRRCFELESRS
